This note sets out measurements from the supplement of paper PMC10567573.

B1: APBB1IP (parent)
chain: PPEPLSQVSMWDQRWQDHQPLLPI
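Further: lentivirally expressed fusions sorted by FACS into six bins by GFP to DsRed ratio, PSI derived from sequencing read proportions per bin multiplied by bin number.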

In the data set the parent is B1. Briefly: protein stability index of a GFP-peptide fusion (GPS, HEK-293T) (PSI 1-6); higher = more stable. The note with it: c terminus: a fixed tail appended.
As for PPENLSQVSMWDQRWQDHQPLLPI [P4N], the protein stability index turned out to be 2.93. PPEFLSQVSMWDQRWQDHQPLLPI [P4F]: the protein stability index came to 2.44. With PPEQLSQVSMWDQRWQDHQPLLPI [P4Q] the figure was 3.34; with PPEVLSQVSMWDQRWQDHQPLLPI [P4V], 2.61. With PPEHLSQVSMWDQRWQDHQPLLPI [P4H] the figure was 3.22. To PPEPLSQVSMWDQRWQDHQPFLPI [L21F] belongs 2.24; to PPEPLSQVSMWDQRWQDHQPYLPI [L21Y], 3.33; to PPEPLSQVSMWDQRWQDHQPQLPI [L21Q], 3.68. For the variant PPEPLSQVSMWDQRWQDHQPRLPI [L21R], the protein stability index is 3.58. Take PPEPLSQVSMWDQRWQDHQPILPI [L21I]: the protein stability index is 2.58.

On to PPEPLSQVSMWDQRWQDHQPALPI [L21A], for which the protein stability index worked out at 3.88. With PPEPLSQVSMWDQRWQDHQPWLPI [L21W] the figure was 2.74; with PPEPLSQVSMWDQRIQDHQPLLPI [W15I], 3.65. On to PPEPLSQVSMWDQRPQDHQPLLPI [W15P], for which the protein stability index came to 3.9.

For the variant PPEPLSQVSMWDQRCQDHQPLLPI [W15C], the protein stability index was determined as 3.39. Consider PPEPLSQVSMWDQREQDHQPLLPI [W15E], for which the protein stability index came out at 4.03. For PPEPLSQVSMWDQRDQDHQPLLPI [W15D], the protein stability index was 4.34. Consider PPEPLSQVSMWDQRKQDHQPLLPI [W15K], for which the protein stability index came out at 4.05. To PPEPLSQVSMWDQRQQDHQPLLPI [W15Q] belongs 4.36; to PPEPLSQVSMWDQRAQDHQPLLPI [W15A], 3.88; to PPEPLSQVSMWDQRGQDHQPLLPI [W15G], 3.62.

As for PPEPYSQVSMWDQRWQDHQPLLPI [L5Y], the protein stability index was 2.71. Consider PPEPISQVSMWDQRWQDHQPLLPI [L5I], for which the protein stability index worked out at 2.72. With PPEPFSQVSMWDQRWQDHQPLLPI [L5F] the figure was 3; with PPEPWSQVSMWDQRWQDHQPLLPI [L5W], 2.2. For the variant PPEPPSQVSMWDQRWQDHQPLLPI [L5P], the protein stability index turned out to be 3.88. With PPEPGSQVSMWDQRWQDHQPLLPI [L5G] the figure was 3.05; with PPEPKSQVSMWDQRWQDHQPLLPI [L5K], 2.71. With PPEPMSQVSMWDQRWQDHQPLLPI [L5M], the protein stability index was 2.88. On to PPEPASQVSMWDQRWQDHQPLLPI [L5A], for which the protein stability index was 3.74.

On to PPEPLSQVSMWDQRWQDHQPLLPF [I24F], for which the protein stability index came to 2.72. Regarding PPEPLSQVSMWDQRWQDHQPLLPM [I24M], the protein stability index came to 3.24.

As to PPEPLSQVSMWDQRWQDHQPLLPY [I24Y], the protein stability index came to 3.54. To PPEPLSQVSMWDQRWQDHQPLLPE [I24E] belongs 3.26; to PPEPLSQVSMWDQRWQDHQPLLPR [I24R], 3.12. With PPEPLSQVSMWDQRWQDHQPLLPN [I24N] the figure was 3.12. To PPEPLSQVSMWDQRWQDHQPLLPT [I24T] belongs 3.62; to PPEPLSQVSMWDQRWQDHQPLLPA [I24A], 3.26; to PPEPLSQVSMWDQRWQDHQPLLPV [I24V], 3.29. PPEPLSQVSMWDQRWQWHQPLLPI [D17W]: the protein stability index stood at 2.79. To PPEPLSQVSMWDQRWQYHQPLLPI [D17Y] belongs 2.25. PPEPLSQVSMWDQRWQMHQPLLPI [D17M]: the protein stability index was 3.24. To PPEPLSQVSMWDQRWQVHQPLLPI [D17V] belongs 2.54. With PPEPLSQVSMWDQRWQFHQPLLPI [D17F] the figure was 2.08; with PPEPLSQVSMWDQRWQTHQPLLPI [D17T], 2.57; with PPEPLSQVSMWDQRWQCHQPLLPI [D17C], 2.6.

For the variant PPEPLSQVSMWDQRWQRHQPLLPI [D17R], the protein stability index turned out to be 2.91.

As for PPEPLSQVSMWDQRWQDHPPLLPI [Q19P], the protein stability index was found to be 2.63. On to PPEPLSQVSMWDQRWQDHLPLLPI [Q19L], for which the protein stability index is 2.83. For PPEPLSQVSMWDQRWQDHRPLLPI [Q19R], the protein stability index was 3.

For the variant PPEPLSQVSMWDQRWQDHWPLLPI [Q19W], the protein stability index was determined as 2.21.

In the case of PPEPLSQVSMWDQRWQDHAPLLPI [Q19A], the protein stability index stood at 3.04. Take PPEPLSQVSMWDQRWQDHYPLLPI [Q19Y]: the protein stability index stood at 2.44. Turning to PPEPLSQVKMWDQRWQDHQPLLPI [S9K], the protein stability index amounted to 3.09.

On to PPEPLSQVRMWDQRWQDHQPLLPI [S9R], for which the protein stability index came out at 3.27. As for PPEPLSQVCMWDQRWQDHQPLLPI [S9C], the protein stability index is 2.34.

PPEPLSQVTMWDQRWQDHQPLLPI [S9T]: the protein stability index was 2.99. For the variant PPEPLSQVVMWDQRWQDHQPLLPI [S9V], the protein stability index came to 3.35.

Take PPEPLSQVMMWDQRWQDHQPLLPI [S9M]: the protein stability index stood at 3.27. As for PPEPLSQVLMWDQRWQDHQPLLPI [S9L], the protein stability index was found to be 2.84. For PPEPLSQVWMWDQRWQDHQPLLPI [S9W], the protein stability index came out at 2.62.

Turning to PPEPLSQVGMWDQRWQDHQPLLPI [S9G], the protein stability index was found to be 3.35. With PPEPLSQVSMNDQRWQDHQPLLPI [W11N] the figure was 4.06. To PPEPLSQVSMSDQRWQDHQPLLPI [W11S] belongs 4.04. To PPEPLSQVSMEDQRWQDHQPLLPI [W11E] belongs 4.18. On to PPEPLSQVSMIDQRWQDHQPLLPI [W11I], for which the protein stability index was 3.1. With PPEPLSQVSMHDQRWQDHQPLLPI [W11H] the figure was 3.83; with PPEPLSQVSMPDQRWQDHQPLLPI [W11P], 3.08. With PPEPLSQVSMGDQRWQDHQPLLPI [W11G] the figure was 4.18; with PPEPLSQVSMRDQRWQDHQPLLPI [W11R], 3.4; with PPEPLSQVSMYDQRWQDHQPLLPI [W11Y], 3.51.

Turning to PPEPLSQVSMWDQRWQDHQPLLFI [P23F], the protein stability index was 1.67.

For the variant PPEPLSQVSMWDQRWQDHQPLLKI [P23K], the protein stability index came out at 2.62.

For PPEPLSQVSMWDQRWQDHQPLLYI [P23Y], the protein stability index worked out at 2.06. With PPEPLSQVSMWDQRWQDHQPLLMI [P23M] the figure was 2.08. To PPEPLSQVSMWDQRWQDHQPLLRI [P23R] belongs 2.38; to PPEPLSQVSMWDQRWQDHQPLLVI [P23V], 2.92.

PPEPLSQVSMWDQRWQDHQPLLII [P23I]: the protein stability index turned out to be 2.04.

PPEPLSQVSMWDQRWQDHQPLLNI [P23N]: the protein stability index was found to be 3.23. For the variant PPEPLSGVSMWDQRWQDHQPLLPI [Q7G], the protein stability index came to 3.25. Turning to PPEPLSHVSMWDQRWQDHQPLLPI [Q7H], the protein stability index was found to be 3.61.

Turning to PPEPLSNVSMWDQRWQDHQPLLPI [Q7N], the protein stability index was found to be 3.14. As for PPEPLSDVSMWDQRWQDHQPLLPI [Q7D], the protein stability index stood at 2.97.

In the case of PPEPLSKVSMWDQRWQDHQPLLPI [Q7K], the protein stability index was determined as 2.34.

On to PPEPLSPVSMWDQRWQDHQPLLPI [Q7P], for which the protein stability index stood at 3.25. Take PPEPLTQVSMWDQRWQDHQPLLPI [S6T]: the protein stability index is 2.76. Take PPEPLKQVSMWDQRWQDHQPLLPI [S6K]: the protein stability index came out at 2.81. With PPEPLVQVSMWDQRWQDHQPLLPI [S6V] the figure was 2.73; with PPEPLLQVSMWDQRWQDHQPLLPI [S6L], 2.85. For the variant PPEPLYQVSMWDQRWQDHQPLLPI [S6Y], the protein stability index is 2.09. For the variant PPEPLGQVSMWDQRWQDHQPLLPI [S6G], the protein stability index is 2.9.

Turning to PPEPLHQVSMWDQRWQDHQPLLPI [S6H], the protein stability index was 2.71. Turning to PPEPLAQVSMWDQRWQDHQPLLPI [S6A], the protein stability index was determined as 3.09.

Take PPEPLCQVSMWDQRWQDHQPLLPI [S6C]: the protein stability index stood at 2.46.
